These results are taken from patent publication US20180153986A1 (BRIGHAM AND WOMEN S HOSPITAL, published 2018).

The target of the assay is T1, human CEACAM1 (carcinoembryonic antigen related cell adhesion molecule 1) (human, UniProt P13688 35-526, limits assumed).
T1 construct: also called hCEACAM1; BGP
T1 sequence: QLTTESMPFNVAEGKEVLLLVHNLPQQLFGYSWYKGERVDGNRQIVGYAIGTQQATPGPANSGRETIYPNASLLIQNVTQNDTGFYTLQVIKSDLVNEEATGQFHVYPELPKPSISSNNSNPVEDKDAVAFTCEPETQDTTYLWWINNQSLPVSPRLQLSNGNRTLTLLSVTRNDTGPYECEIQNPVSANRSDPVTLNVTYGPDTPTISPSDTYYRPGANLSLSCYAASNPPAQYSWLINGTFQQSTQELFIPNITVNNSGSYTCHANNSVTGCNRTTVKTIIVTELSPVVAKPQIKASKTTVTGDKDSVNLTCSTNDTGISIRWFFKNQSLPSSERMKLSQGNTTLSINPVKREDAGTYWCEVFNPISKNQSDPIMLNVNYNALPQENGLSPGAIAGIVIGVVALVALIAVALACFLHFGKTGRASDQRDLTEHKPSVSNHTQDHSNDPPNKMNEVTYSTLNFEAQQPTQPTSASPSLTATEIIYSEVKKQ
The assay is described as follows: method not described ('as demonstrated herein'); support is structural prediction and co-expression.

B1: human TIM-1 (T-cell immunoglobulin and mucin domain-containing protein 1) (receptor)
chain: SVKVGGEAGPSVTLPCHYSGAVTSMCWNRGSCSLFTCQNGIVWTNGTHVTYRKDTRYKLLGDLSRRDVSLTIENTAVSDSGVYCCRVEHRGWFNDMKITVSLEIVPPKVTTTPIVTTVPTVTTVRTSTTVPTTTTVPTTTVPTTMSIPTTTTVLTTMTVSTTTSVPTTTSIPTTTSVPVTTTVSTFVPPMPLPRQNHEPVATSPSSPQPAETHPTTLQGAIRREPTSSPLYSYTTDGNDTVTESSDGLWNNNQTQLFLEHSLLTANTTKGIYAGVCISVLVLLALLGVIIAKKYFFKKEVQQLSVSFSSLQIKALQNAVEKEVQAEDNIYIENSLYATD
notes: also called HAVCR; HAVCR-1
For B1, the binding result is on record as “binds”.
